The chains are these.
T1: DMP1 (Homo sapiens (Human), UniProt Q13316 17-513)
T1 sequence: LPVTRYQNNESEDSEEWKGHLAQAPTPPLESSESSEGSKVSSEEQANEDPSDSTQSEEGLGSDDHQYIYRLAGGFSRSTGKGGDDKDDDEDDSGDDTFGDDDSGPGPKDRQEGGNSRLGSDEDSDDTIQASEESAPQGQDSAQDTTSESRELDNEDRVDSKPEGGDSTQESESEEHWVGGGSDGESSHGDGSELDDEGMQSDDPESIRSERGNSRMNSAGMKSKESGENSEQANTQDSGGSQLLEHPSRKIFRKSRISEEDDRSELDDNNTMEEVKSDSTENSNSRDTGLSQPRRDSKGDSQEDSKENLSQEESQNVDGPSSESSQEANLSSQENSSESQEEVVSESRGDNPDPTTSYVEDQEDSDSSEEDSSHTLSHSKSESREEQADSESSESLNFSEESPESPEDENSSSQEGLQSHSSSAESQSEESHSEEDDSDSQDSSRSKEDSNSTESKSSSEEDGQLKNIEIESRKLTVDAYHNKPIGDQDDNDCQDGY

T2: SPOCK2 (Homo sapiens (Human), UniProt Q92563 23-424)
T2 sequence: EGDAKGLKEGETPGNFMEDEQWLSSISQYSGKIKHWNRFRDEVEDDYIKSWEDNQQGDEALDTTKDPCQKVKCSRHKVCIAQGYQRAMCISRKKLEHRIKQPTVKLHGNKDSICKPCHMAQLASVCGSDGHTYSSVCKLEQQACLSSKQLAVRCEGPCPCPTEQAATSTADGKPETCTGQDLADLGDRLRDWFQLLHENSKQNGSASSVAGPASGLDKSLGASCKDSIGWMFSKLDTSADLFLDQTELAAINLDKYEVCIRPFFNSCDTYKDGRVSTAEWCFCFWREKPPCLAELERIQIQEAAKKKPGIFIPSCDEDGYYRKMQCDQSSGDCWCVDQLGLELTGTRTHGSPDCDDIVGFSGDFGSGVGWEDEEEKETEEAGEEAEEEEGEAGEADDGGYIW

T3: DKK4 (Homo sapiens (Human), UniProt Q9UBT3 19-224)
T3 sequence: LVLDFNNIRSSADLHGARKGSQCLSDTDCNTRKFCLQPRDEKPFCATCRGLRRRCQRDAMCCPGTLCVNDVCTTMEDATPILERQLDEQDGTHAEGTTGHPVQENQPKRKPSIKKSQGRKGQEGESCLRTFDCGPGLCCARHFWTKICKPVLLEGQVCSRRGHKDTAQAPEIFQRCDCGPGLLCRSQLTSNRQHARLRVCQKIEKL

T4: RAET1E (Homo sapiens (Human), UniProt Q8TD07 31-225)
T4 sequence: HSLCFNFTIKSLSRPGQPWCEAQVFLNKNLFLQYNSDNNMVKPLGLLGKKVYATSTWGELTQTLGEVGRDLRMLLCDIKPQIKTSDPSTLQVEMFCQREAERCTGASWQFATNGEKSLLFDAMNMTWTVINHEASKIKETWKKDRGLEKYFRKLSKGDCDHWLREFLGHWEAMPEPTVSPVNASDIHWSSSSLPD

T5: TMEFF2 (Homo sapiens (Human), UniProt Q9UIK5 41-320)
T5 sequence: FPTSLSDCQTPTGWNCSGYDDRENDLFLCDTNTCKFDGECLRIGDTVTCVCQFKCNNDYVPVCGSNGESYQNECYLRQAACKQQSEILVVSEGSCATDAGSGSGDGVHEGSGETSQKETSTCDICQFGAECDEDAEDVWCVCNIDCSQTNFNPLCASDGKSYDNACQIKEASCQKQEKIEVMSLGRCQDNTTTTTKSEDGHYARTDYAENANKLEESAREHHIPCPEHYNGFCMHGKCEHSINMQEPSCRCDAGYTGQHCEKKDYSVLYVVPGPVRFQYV

T6: SLITRK5 (Homo sapiens (Human), UniProt O94991 41-664)
T6 sequence: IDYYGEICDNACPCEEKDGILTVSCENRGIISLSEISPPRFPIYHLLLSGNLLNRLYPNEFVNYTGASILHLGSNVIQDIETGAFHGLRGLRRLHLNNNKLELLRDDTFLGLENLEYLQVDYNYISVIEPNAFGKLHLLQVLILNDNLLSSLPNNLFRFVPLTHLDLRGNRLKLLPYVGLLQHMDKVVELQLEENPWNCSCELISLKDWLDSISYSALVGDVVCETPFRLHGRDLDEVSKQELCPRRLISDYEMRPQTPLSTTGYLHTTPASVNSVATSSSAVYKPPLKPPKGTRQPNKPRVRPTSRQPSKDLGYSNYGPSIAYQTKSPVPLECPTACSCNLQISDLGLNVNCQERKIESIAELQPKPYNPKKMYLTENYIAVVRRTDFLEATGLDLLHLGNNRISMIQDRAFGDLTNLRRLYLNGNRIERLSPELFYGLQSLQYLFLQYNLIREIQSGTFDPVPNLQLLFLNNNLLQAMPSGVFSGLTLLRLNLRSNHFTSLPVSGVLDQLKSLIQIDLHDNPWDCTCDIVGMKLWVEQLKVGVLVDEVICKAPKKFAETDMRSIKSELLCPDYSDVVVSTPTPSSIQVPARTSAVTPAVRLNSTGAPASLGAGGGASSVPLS

T7: SCARF1 (Homo sapiens (Human), UniProt Q14162 20-421)
T7 sequence: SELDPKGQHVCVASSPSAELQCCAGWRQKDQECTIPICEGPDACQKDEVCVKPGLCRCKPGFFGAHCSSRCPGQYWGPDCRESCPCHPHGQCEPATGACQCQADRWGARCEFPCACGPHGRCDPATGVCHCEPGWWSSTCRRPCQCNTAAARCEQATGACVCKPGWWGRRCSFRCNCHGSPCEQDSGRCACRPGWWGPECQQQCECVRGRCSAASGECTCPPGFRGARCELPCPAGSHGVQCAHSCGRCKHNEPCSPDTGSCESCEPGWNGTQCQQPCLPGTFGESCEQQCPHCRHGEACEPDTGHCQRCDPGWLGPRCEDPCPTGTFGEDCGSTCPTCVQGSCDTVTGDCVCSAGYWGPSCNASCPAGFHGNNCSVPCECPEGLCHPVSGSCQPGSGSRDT

B1: PD1-45D6 (antibody, V domains shown)
VH: QVQLVESGGGVVQPGRSLRLSCAASGFTFSSYAMHWVRQVPGKGLEWVAVISYDGNDKYYADSVKGRFTISRDNSKNTLYLQMNSLRAEDTAVYYCVPTTFEYWGQGSQVTVSS
VL: DIVMTQTPLSLPVTPGEAASISCRSSQSLLDSDDGKTYLDWYLQKPGQSPQLLIYTLSYRASGVPDRFSGSGSGTEFNLRISRVEAEDVGIYYCMQRVEFPFTFGQGTKLDIK
notes: scFv-phage in the screening ELISA; whole IgG in the other assays
B2: PD1-41C9 (antibody, V domains shown)
VH: QMQLVESGGGVVQPGRSLRLSCAASGFTFSSYAMHWVRQAPGKGLEWVAVISYDGSNKYYADSVKGRFTISRDNSKNTLYLQMNRLRSEDTAVYYCTTTTFDSWGQGTLITVSS
VL: DIVMTQTPLSLPVTPGEAASISCRSSQSLLDSEDGNTYLDWYLQKPGQSPQLLIYTLSHRASGVPDRFSGSGSGTDFTLKISRVAAEDVGLYYCLQRMGFPYTFGQGTKLDIK
notes: as for B1
B3: PD1-49A2 (antibody, V domains shown)
VH: B2 VH with M2V, S75P, R85S, S88A, Q106R, I110V
VL: B2 VL with T7S, A18P, L30F, E33D, A85E, L91I, L110V, D111E
notes: scFv-phage in the screening ELISA; whole IgG in the other assays; also called Parent 49A2

Residue numbers refer to the chain shown, from its start.

The target in the first test is T1, DMP1. Nature of the test: ELISA. A general note: An ELISA detects its analyte on a solid surface through an enzyme-linked reagent.
As to B1, the binding result is given as “no binding (tested: 1 ug/ml)”.
With B2, the binding result is listed as “no binding (tested: 1 ug/ml)”.
B3: the binding result is given as “no binding (tested: 1 ug/ml)”.

A further test addresses T2, SPOCK2. Nature of the test: ELISA.
Take B1: the binding result is recorded as “no binding (tested: 1 ug/ml)”.
B2: the binding result is “no binding (tested: 1 ug/ml)”.
With B3, the binding result was “no binding (tested: 1 ug/ml)”.

The next test has as its target T3, DKK4. Put plainly: ELISA.
As for B1, the binding result is on record as “no binding (tested: 1 ug/ml)”.
As for B2, the binding result is “no binding (tested: 1 ug/ml)”.
On to B3, for which the binding result is “no binding (tested: 1 ug/ml)”.

In another test the target is T4, RAET1E. Nature of the test: ELISA.
Turning to B1, the binding result is “no binding (tested: 1 ug/ml)”.
On to B2, for which the binding result is recorded as “no binding (tested: 1 ug/ml)”.
The same measure, in the same setting: the result for B3 reads “no binding (tested: 1 ug/ml)”.

The next test concerns the target TLR3 (Homo sapiens (Human), UniProt O15455 24-704). Put plainly: ELISA.
Consider B1, for which the binding result was “no binding (tested: 1 ug/ml)”.
Turning to B2, the binding result is “no binding (tested: 1 ug/ml)”.
Regarding B3, the binding result is given as “no binding (tested: 1 ug/ml)”.

A further test deals with T5, TMEFF2. Nature of the test: ELISA.
B1: the binding result is on record as “no binding (tested: 1 ug/ml)”.
As for B2, the binding result is “no binding (tested: 1 ug/ml)”.
For the molecule B3, the binding result was “no binding (tested: 1 ug/ml)”.

In the next test the target is T6, SLITRK5. Nature of the test: ELISA.
With B1, the binding result is “no binding (tested: 1 ug/ml)”.
Turning to B2, the binding result is listed as “no binding (tested: 1 ug/ml)”.
The same measure, in the same setting: to B3 belongs “no binding (tested: 1 ug/ml)”.

The next test deals with T7, SCARF1. Nature of the test: ELISA.
With B1, the binding result is “no binding (tested: 1 ug/ml)”.
On the same count and under the same terms, the result for B2 reads “no binding (tested: 1 ug/ml)”.
For B3, the binding result was “no binding (tested: 1 ug/ml)”.

(Values after patent publication US20190248900A1 (Y BIOLOGICS, published 2019).)
